# Measurements published in US20210198377A1 (XDCEXPLORER SHANGHAI, published 2021).
# Numbering of substitutions follows the chain as printed.
# T1: mouse TPBG (full length, on cells) (mouse, UniProt Q9Z0L0 32-426)
# T1 construct: whole, on cells; On transfected CHO-K1 cells; also called mTPBG; CHO-K1-mTPBG
# T1 sequence (looked up): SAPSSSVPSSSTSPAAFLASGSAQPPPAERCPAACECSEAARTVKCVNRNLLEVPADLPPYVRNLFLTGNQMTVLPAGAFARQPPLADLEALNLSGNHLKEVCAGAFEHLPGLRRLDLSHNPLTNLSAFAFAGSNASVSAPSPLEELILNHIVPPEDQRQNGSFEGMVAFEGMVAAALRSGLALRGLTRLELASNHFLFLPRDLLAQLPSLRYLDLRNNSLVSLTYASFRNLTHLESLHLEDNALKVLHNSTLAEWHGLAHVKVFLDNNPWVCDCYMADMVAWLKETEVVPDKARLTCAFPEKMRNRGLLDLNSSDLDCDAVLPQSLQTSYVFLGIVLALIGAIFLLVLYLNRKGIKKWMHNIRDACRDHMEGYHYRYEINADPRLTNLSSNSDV
# T2: biotinylated recombinant TPBG protein (Homo sapiens (Human), UniProt Q13641 32-355, Biotinylated; the number and positions of the biotin labels are not stated and the letters do not carry them.)
# T2 sequence: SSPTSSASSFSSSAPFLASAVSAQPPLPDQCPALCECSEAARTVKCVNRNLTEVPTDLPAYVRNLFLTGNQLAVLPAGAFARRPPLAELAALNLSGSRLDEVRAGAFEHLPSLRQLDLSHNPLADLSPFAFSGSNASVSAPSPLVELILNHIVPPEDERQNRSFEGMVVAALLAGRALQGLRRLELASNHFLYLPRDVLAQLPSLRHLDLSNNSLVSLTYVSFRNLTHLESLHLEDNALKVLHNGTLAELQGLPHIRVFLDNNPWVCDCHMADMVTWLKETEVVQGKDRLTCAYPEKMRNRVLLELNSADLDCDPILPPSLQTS
# B1: 37H9C5G2 (antibody, V domains shown)
# VH: QVQLQQSDAELVRPGASVKMSCKVSGYTFTDHTIHWMKQRPEQGLEWIGYIYPRDGSGTYNEKFKGKATLTADKSSSTAYMQLNSLTSEDSAVYFCARDGSSHYWYFDVWGTGTTVTVSS
# VL: DIQMTQSPASLSASVGETVTITCRASEIIYNYLAWYQQKQGKSPQLLVYNAKTLAEGVPSRFSGSYSGTQFSLNINSLQSEDFGIYYCQHHHDTPLTFGAGTKLDLK
# notes: Mouse hybridoma antibody purified from culture supernatant; also called TPBG antibody; lead antibody
# B2: 5G4H10G5 (antibody, V domains shown)
# VH: EVQLVESGGDLVQPGGSLKLFCAASGFTFSTYGLSWVRQTPDKRLELVATITNNDGSAYYPDSVKGRFTISRDKAKNTLFLQMTSLKSEDTAMYYCARETGFGSSYLFDYWGQGTLVTVSA
# VL: NIVMTQTPKFLLVSAGDRVTITCKASQSVSNDVAWYQQKPGQSPKLLIYFATNRYTGVPNRFTGSGYGTEFTFTISSVQAEDLAVYFCQQDYSSPTFGGGTKLEIK
# notes: as for B1
# B3: 39A11G5F2 (antibody, V domains shown)
# VH: QVQLQQSGAELMKPGASMRLSCKATGYTFTGYWLEWIKRRPGHGLEWIGEILPGRGSTNYNEKFKGKATFTAETSSNTAYMQLTSLTTEDSAIYYCARGGRDFDNWGQGTTLTVSS
# VL: DIQMTQSTSSLSASLGDRVTISCSASQGINNHLNWYQQKPDGTVKLLIYYTSSLHSGVPSRFSGSGSGTDYSLTISNLEPEDIAIYYCQQFSKLPYTFGGGTKVEMK
# notes: as for B1
# B4: 52C9E9F6 (antibody, V domains shown)
# VH: QVQLQQSGAELMKPGASVKLSCKATGYTFTGYWIEWIKQRPGHGLEWIGEILPGRGSTDYNEKFKGKATFTADTSSNTAYMQLSSLTTEDSAIYYCTRGRLDFTYWGQGTLVTVSA
# VL: B3 VL with S7T, N30R, H32Y, I85T, F91Y, L94V, Y96W, V104L, M106I
# notes: as for B1
# B5: 12B12C7C3 (antibody, V domains shown)
# VH: DVQLVESGGGLVQPGGSRKLSCAASGFTFSNFGMHWVRQAPEKGLEWVAYISSGSTSFYYADTVKGRFTISRDNPKNTLFLQMTSLRSEDTAMYYCSRTNSLLRGFFDAWGAGTTVTVSS
# VL: DIVLTQSPASLAVSLGQRATISCRASQSVSSSSYTYLHWYQQKPGQPPKLLIKSASNLESGVPARFSGTGSGTDFTLNIHPVEEEDTATYYCQHSWEIPLTFGAGTKLELK
# notes: as for B1
# B6: 28D4E6A9 (antibody, V domains shown)
# VH: DVQLVESGGGLVRPGGSLKLSCAASGFTFSNYVMSWARQSPEKRLEWVAEISTGGSHTYYSDTVTGRFTISRDNAKKALYLEMSSLRSEDTAIYYCIMFYYGSSYSMDYWGQGTSVTVSS
# VL: DIQMTQSTSSLSASLGDRITISCRASQDIRNYLNWYQQKPDGTVKLLIYHTSRLHSGVPSRFSGSGSGTDYSLTISNLEQEDIATYFCQQGDTLPLTFGAGTRLELK
# notes: as for B1
# B7: 99E12C7H1 (antibody, V domains shown)
# VH: QIQLVQSGPELKKPGETVKISCKPSGYTFTAYGLSWVKQAPGQGFQWMGWINTYSGVPTYTDDFKGRFAFSLETSAGTASLQITNLKNEDTATYFCARSSIPPFEYWGPGTTLTVSS
# VL: SFVMTQSPKFLLVSVGDRVTITCKASQSVSNDVAWYQQKPGQPPRVLIYFASNRYTGVPDRFTGSGYGTDFTFTISTVQAEDLALYFCQQDYSSPWTFGGGTKLEIK
# notes: as for B1
# B8: 103E2E9C2 (antibody, V domains shown)
# VH: EVQLQQSGPVLVKPGASVKMSCEASGYSFIDYYMSWVKQSRGRSLEWIGVFNPYSGEIIYNQKFKGKATLTVDKSSSTAYMELSSLTSEDSGVYSCARLRISYYAIDYWGQGTSVAVSS
# VL: ENVLTQSPAIMSASPGEKVTMTCRATSSVSSGHFHWYQQKSGASPKVWIYSTSNLASGVPARFSGSGSGTSFSLTISSVEAEDVATYFCQQYSGYPLTFGGGTKLEIK
# notes: as for B1
# B9: 106D5G3D10 (antibody, V domains shown)
# VH: EVQLVESGGGLVKPGGSLKLSCAASGFTFSDYGMHWVRQAPEKGLEWVGYISSGTYVVYYADTVKGRFTISRDNAKNTLFLQMTSLRSEDTAIYYCSTYGSNPFDYWGQGTTLTVSS
# VL: QLVLTQSPAIMSASPGEKVTITCSATSSVSSMHWFQQKPVTSPKLWIYSTSNLASGVPTRFSGSGSGTSYSLTISRMEAEDAATYYCQQRSGYPPIFTFGSGTKLEIK
# notes: as for B1
# B10: 36A10D8B12 (antibody, V domains shown)
# VH: DVQLQESGPGMVKPSQSLSLTCTVTGYSITSGYDWHWIRHFPGNKLEWMGYISYSGNTNYNPSLKSRISITHNTSKNHFFLRLNSVTTEDTATYYCARGYGNWDAMDYWGQGTSVTVSS
# VL: DIVMTQSQKFMSTSVGDRVSVTCKASQIVDTNVAWYQQKPGQSPKALISSASYRYSGVPDRFTGSGSGTDFTLTISNVQSEDLAEYFCQQYNSYPLTFGAGTKLELT
# notes: as for B1
# Target: T1, mouse TPBG (full length, on cells)
# Experiment: FACS on CHO-K1-mTPBG cells
# Excerpt: The stable cell lines CHO-k1-hTPBG, CHO-k1-cTPBG, CHO-k1-mTPBG (i.e. the CHO-k1-hTPBG 3A2F1, CHO-k1-cTPBG 3F13G4 and CHO-k1-mTPBG 3A3 shown in table 7) and CHO-K1 cells were expanded to a 90% of confluency in T-75 cell culture flasks, the culture medium were removed, and cells were then rinsed twice with HBSS buffer (Hanks Balanced Salt Solution, purchased from Invitrogen) and lysed with enzyme-free cell dissociation buffer (Versene solution purchased from Life technology) and harvested. Harvested cells were rinsed with HBSS buffer twice and counted before diluting with HBSS buffer to 2×10⁶ cells /mL, and 10% goat serum blocking buffer was then added, wherein the percentage is the mass percentage. Cells were incubated on ice for 30 min, and then washed twice with HBSS buffer by centrifugation. The harvested cells were resuspended with FACS buffer (HBSS+1% BSA, wherein the percentage is mass percentage) to a concentration of 2×10⁶ cells /mL. 100 μL per well of the cells was aliquoted to 96-well FACS reaction plates, and 100 μL per well of test sample—the purified TPBG antibody obtaining from Embodiment 2 was added before incubating on ice for 2 h. The plate was washed with the FACS buffer twice by centrifugation, and 100 μL per well of fluorescence (Alexa 488) labeled secondary antibody (purchased from Invitrogen) was then added and incubated on ice for 1 h. The plate was washed with the FACS buffer for three times by centrifugation, follow by resuspending in 100 μL of fixation buffer (4% (v/v) paraformaldehyde). Cells were washed with FACS buffer twice after 10 min, follow by resuspending with 100 μL of FACS buffer. The results were measured and analyzed by FACS (FACS Calibur, purchased from BD). Data analysis was performed by software (CellQuest) to obtain mean fluorescence intensity (MFI) of the cells, follow by calculating EC50 value by software (GraphPad Prism) analysis and data fitting. The analysis results were shown in Table 8 and FIGS. 7-10, and data in FIGS. 7-10 show the mean fluorescence intensity (MFI) of cells.
EC50,binding result,Binder
11.1 nM,,B1
9.07 nM,,B2
1.88 nM,,B3
,no binding,B4
,no binding,B5
,no binding,B6
,no binding,B7
,no binding,B8
,no binding,B9
,no binding,B10

# Target: T2, biotinylated recombinant TPBG protein
# Experiment: competitive ELISA; row antibody 5 ug/mL; competitor: coated 36A10D8B12
# Protocol: (§1) The purified antibodies to be tested were diluted to 1 μg/mL using PBS, and coated with high-adsorption of 96-well microplates at […]. After overnight coating at 4[…], 250 μL of blocking buffer (PBS containing 0.01% (v/v) Tween20 and 1% (w/w) BSA) was added to block coating at room temperature for 1 h, and 0.05 μg/mL of biotinylated recombinant TPBG protein was added to each well. Meanwhile, 5 μg/mL final concentration of competitive antibodies, i.e. the purified antibodies obtained from Embodiment 2 with the clone number of 12B12C7C3, 5G4H10G5, 37H9C5G2, 39A11G5F2, 52C9E9F6, 28D4E6A9, 36A10D8B12, 99E12C7H1, 103E2E9C2 and 106D5G3D10 were added and incubated at 25-37° C. for 1-2 h. The plates were washed three times with plate-washing buffer (PBS containing 0.01% (v/v) Tween20) and HRP (horseradish peroxidase)-labeled streptavidin (purchased from Sigma) was added. After incubating at 37° C. for 0.5 h, the plates were washed three times with plate-washing buffer (PBS containing 0.01% (v/v) Tween20), and 100 μL of TMB substrate was added to each well and the plates were further incubated at room temperature for 30 min prior to adding 100 μL of stop buffer (1.0N HCl) to each well. A₄₅₀ₙₘ values were read using an ELISA microplate reader (SpectraMax 384plus purchased from Molecular Device) and results were shown in FIG. 6. The higher the values of the competition rate, the closer the antigen surface of the two antibodies are.
row,competition rate,Binder
1,94%,B1
2,1%,B2
3,0%,B3
4,19%,B4
5,3%,B5
6,75%,B6
7,8%,B7
8,31%,B8
9,1%,B9
10,85%,B10

# Target: T2, biotinylated recombinant TPBG protein
# Experiment: competitive ELISA; row antibody 5 ug/mL; competitor: coated 99E12C7H1
# Protocol: as §1
row,competition rate,Binder
1,7%,B1
2,95%,B2
3,16%,B3
4,18%,B4
5,25%,B5
6,11%,B6
7,94%,B7
8,3%,B8
9,11%,B9
10,25%,B10

# Target: T2, biotinylated recombinant TPBG protein
# Experiment: competitive ELISA; row antibody 5 ug/mL; competitor: coated 37H9C5G2
# Protocol: as §1
row,competition rate,Binder
1,96%,B1
2,5%,B2
3,0%,B3
4,4%,B4
5,1%,B5
6,0%,B6
7,5%,B7
8,23%,B8
9,3%,B9
10,96%,B10
